Experimental data: patent EP4674868A1 (Jiangsu Hengrui Pharmaceuticals Co., Ltd., dated 2026)
Numbering of substitutions follows the chain as printed. Numbers in names are those of the source. Where two headings read alike, the source gives them in different places.

B1: Ab10-A12V2-2 (FAP/CD40 bispecific antibody molecule, control) (bispecific antibody, human IgG1, kappa, L234A L235A)
heavy: not shown
light: DIQMTQSPSSVSASVGDRVTITCRASQGISSWLAWYQQKPGKAPKLLIYAASSLQSGVPSRFSGSGSGTDFTLTISSLQPEDFATYYCQQANSFPPAFGQGTKVEIKRTVAAPSVFIFPPSDEQLKSGTASVVCLLNNFYPREAKVQWKVDNALQSGNSQESVTEQDSKDSTYSLSSTLTLSKADYEKHKVYACEVTHQGLSSPVTKSFNRGEC
B2: humanized anti-4-1BB nanobody C5_V2 linked to human IgG1-Fc (Fc fusion)
chain: QVQLVESGGGLVQPGGSLRLSCSASGFTFSSYAMSWVRQAPGKGLEWVSDINSGGESTFYEDSVKGRFTISRDNAKNTLYLQMNSLRAEDTAVYYCAKHPLTFTIATMNDYDYWGQGTLVTVSSEPKSADKTHTCPPCPAPELLGGPSVFLFPPKPKDTLMISRTPEVTCVVVDVEHEDPEVKFNWYVDGVEVHNAKTKPREEQYNSTYRVVSVLTVLHQDWLNGKEYKCKVSSKAFPAPIEKTISKAKGQPREPQVYTLPPSRDELTKNQVSLTCLVKGFYPSDIAVEWESNGQPENNYKTTPPVLDSDGSFFLYSKLTVDKSRWQQGNVFSCSVMHEALHNHYTQKSLSLSPGK
B3: C5_V2-YTI (TCE-optimized C5_V2, F99Y Kabat) linked to human IgG1-Fc (Fc fusion)
chain: B2 chain with F103Y
B4: BNT312 (CD40/4-1BB bispecific antibody molecule, control) (bispecific antibody, human IgG1, kappa)
heavy 1: EVQLVQSGAEVKKPGASVKVSCKTSGYTFTEYIMHWVRQAPGQGLEWMGGIIPNNGGTSYNQKFQGRVTMTVDKSTSTGYMELSSLRSEDTAVYYCTRREVYGRNYYALDYWGQGTLVTVSSASTKGPSVFPLAPSSKSTSGGTAALGCLVKDYFPEPVTVSWNSGALTSGVHTFPAVLQSSGLYSLSSVVTVPSSSLGTQTYICNVNHKPSNTKVDKRVEPKSCDKTHTCPPCPAPEFEGGPSVFLFPPKPKDTLMISRTPEVTCVVVAVSHEDPEVKFNWYVDGVEVHNAKTKPREEQYNSTYRVVSVLTVLHQDWLNGKEYKCKVSNKALPAPIEKTISKAKGQPREPQVYTLPPSREEMTKNQVSLTCLVKGFYPSDIAVEWESNGQPENNYKTTPPVLDSDGSFLLYSKLTVDKSRWQQGNVFSCSVMHEALHNHYTQKSLSLSPGK
light 1: not shown
heavy 2: EVQLVESGGGLVQPGRSLRLSCTASGFSLNDYWMSWVRQAPGKGLEWVGYIDVGGSLYYAASVKGRFTISRDDSKSIAYLQMNSLKTEDTAVYYCARGGLTYGFDLWGQGTLVTVSSASTKGPSVFPLAPSSKSTSGGTAALGCLVKDYFPEPVTVSWNSGALTSGVHTFPAVLQSSGLYSLSSVVTVPSSSLGTQTYICNVNHKPSNTKVDKRVEPKSCDKTHTCPPCPAPEFEGGPSVFLFPPKPKDTLMISRTPEVTCVVVAVSHEDPEVKFNWYVDGVEVHNAKTKPREEQYNSTYRVVSVLTVLHQDWLNGKEYKCKVSNKALPAPIEKTISKAKGQPREPQVYTLPPSREEMTKNQVSLTCLVKGFYPSDIAVEWESNGQPENNYKTTPPVLDSDGSFFLYSRLTVDKSRWQQGNVFSCSVMHEALHNHYTQKSLSLSPGK
light 2: DIVMTQSPSSLSASVGDRVTITCQASEDISSYLAWYQQKPGKAPKRLIYGASDLASGVPSRFSASGSGTDYTFTISSLQPEDIATYYCHYYATISGLGVAFGGGTKVEIKRTVAAPSVFIFPPSDEQLKSGTASVVCLLNNFYPREAKVQWKVDNALQSGNSQESVTEQDSKDSTYSLSSTLTLSKADYEKHKVYACEVTHQGLSSPVTKSFNRGEC

How the values were obtained:
[1] = target: T1, human CD40 on the surface of HEK293 cells (HEK293-HuCD40) (human, UniProt P25942 21-277); test: FACS, HEK293-HuCD40 cells
T1 construct: whole, on cells; Also used as the target of the CD40/NF-κB reporter assays in HEK-Blue CD40L cells; also called cell strain highly expressing human CD40; CD40 of HEK-Blue CD40L reporter cells

[2] = target: T2, human 4-1BB on the surface of HEK293 cells (HEK293-Hu4-1BB) (human, UniProt Q07011 24-255); test: cell-based or functional assay
[3] = target: T1, human CD40 on the surface of HEK293 …; test: cell-based or functional assay
[4] = target: T2, human 4-1BB on the surface of HEK293 …; test: FACS, HEK293-Hu4-1BB cells
[5] = target: T3, human FAP on the surface of CHO-K1 cells (CHO-K1-HuFAP) (human, UniProt Q12884 1-760); test: FACS, CHO-K1-HuFAP cells
T3 construct: whole, on cells; also called CHO cell line overexpressing human FAP; FAP on the surface of CHO-K1-HuFAP cells

[6] = target: T1, human CD40 on the surface of HEK293 …; test: cell-based or functional assay; remark: listed apart in the source
[7] = target: T3, human FAP on the surface of CHO-K1 …; test: FACS, CHO-K1-HuFAP cells; remark: listed apart in the source
[8] = target: T1, human CD40 on the surface of HEK293 …; test: cell-based or functional assay; remark: listed apart in the source
[9] = target: T1, human CD40 on the surface of HEK293 …; test: FACS, HEK293-HuCD40 cells; remark: listed apart in the source
[10] = target: T2, human 4-1BB on the surface of HEK293 …; test: FACS, HEK293-Hu4-1BB cells; remark: listed apart in the source
[11] = target: T2, human 4-1BB on the surface of HEK293 …; test: cell-based or functional assay; remark: listed apart in the source
[12] = target: T2, human 4-1BB on the surface of HEK293 …; test: FACS, HEK293-Hu4-1BB cells; remark: listed apart in the source
[13] = target: T2, human 4-1BB on the surface of HEK293 …; test: cell-based or functional assay; remark: listed apart in the source
[14] = target: T2, human 4-1BB on the surface of HEK293 …; test: FACS, HEK293-Hu4-1BB cells; remark: listed apart in the source
[15] = target: T2, human 4-1BB on the surface of HEK293 …; test: FACS, HEK293-Hu4-1BB cells; remark: listed apart in the source

Row | Binder | EC50 [1] | Maximum fluorescence value [1] | 4-1BB/NF-κB luciferase reporter, CD40-crosslinked, Fold change in Emax [2] | 4-1BB/NF-κB luciferase reporter, FAP-crosslinked, Fold change in Emax [2] | 4-1BB/NF-κB luciferase reporter, uncrosslinked, Fold change in Emax [2] | CD40/NF-κB reporter (HEK-Blue CD40L), 4-1BB-crosslinked, Fold change in Emax [3] | CD40/NF-κB reporter (HEK-Blue CD40L), FAP-crosslinked, Fold change in Emax [3] | CD40/NF-κB reporter (HEK-Blue CD40L), uncrosslinked, Fold change in Emax [3] | Maximum fluorescence value [4] | Maximum fluorescence value [5] | Maximum fluorescence value [7] | CD40/NF-κB reporter (HEK-Blue CD40L), 4-1BB-crosslinked, Fold change in Emax [8] | CD40/NF-κB reporter (HEK-Blue CD40L), FAP-crosslinked, Fold change in Emax [8] | CD40/NF-κB reporter (HEK-Blue CD40L), uncrosslinked, Fold change in Emax [8] | EC50 [9] | Maximum fluorescence value [9] | Maximum fluorescence value [10] | 4-1BB/NF-κB luciferase reporter, CD40-crosslinked, Fold change in Emax [11] | 4-1BB/NF-κB luciferase reporter, FAP-crosslinked, Fold change in Emax [11] | 4-1BB/NF-κB luciferase reporter, uncrosslinked, Fold change in Emax [11] | further results
1 | B1 | 4.77 nM | 54000 | 1.1 fold | 1.05 fold | 1.06 fold | 5 fold | 6.47 fold | 4.57 fold | 70 | 77200 | 82700 | 4.27 fold | 11.3 fold | 3.73 fold | 6.85 nM | 55200 | 73 | 1.07 fold | 1.01 fold | 1.1 fold | CD40/NF-κB reporter (HEK-Blue CD40L), FAP-crosslinked, EC50 [3]: 0.23 nM; EC50 [5]: 1.72 nM; CD40/NF-κB reporter (HEK-Blue CD40L), 4-1BB-crosslinked, Fold change in Emax [6]: 8.42 fold; CD40/NF-κB reporter (HEK-Blue CD40L), FAP-crosslinked, EC50 [6]: 0.025 nM; CD40/NF-κB reporter (HEK-Blue CD40L), FAP-crosslinked, Fold change in Emax [6]: 11.9 fold; CD40/NF-κB reporter (HEK-Blue CD40L), uncrosslinked, Fold change in Emax [6]: 7.05 fold; EC50 [7]: 2.73 nM; CD40/NF-κB reporter (HEK-Blue CD40L), FAP-crosslinked, EC50 [8]: 0.35 nM
2 | B2 |  |  |  |  |  |  |  |  |  |  |  |  |  |  |  |  |  |  |  |  | EC50 [12]: 0.98 nM; Maximum fluorescence value [12]: 53700; Activation of HEK293-4-1BB cells (NF-κB reporter), Fold change in Emax [13]: 1.37 fold; FcγRIIb-mediated activation of HEK293-4-1BB cells (NF-κB reporter), Fold change in Emax [13]: 2.02 fold; EC50 [14]: 1.62 nM; Maximum fluorescence value [14]: 1030; EC50 [15]: 0.98 nM
3 | B3 |  |  |  |  |  |  |  |  |  |  |  |  |  |  |  |  |  |  |  |  | EC50 [12]: 0.62 nM; Maximum fluorescence value [12]: 53800; EC50 [15]: 0.62 nM
4 | B4 | 6.78 nM | 108000 | 4.76 fold | 1.19 fold | 1.09 fold | 5.97 fold | 5.41 fold | 5.06 fold | 29300 | 77 | 449 | 9.51 fold | 6.27 fold | 7.66 fold | 2.77 nM | 109000 | 25700 | 3.56 fold | 1.01 fold | 1.1 fold | 4-1BB/NF-κB luciferase reporter, CD40-crosslinked, EC50 [2]: 1.65 nM; 4-1BB/NF-κB luciferase reporter, FAP-crosslinked, EC50 [2]: 0.293 nM; CD40/NF-κB reporter (HEK-Blue CD40L), 4-1BB-crosslinked, EC50 [3]: 1.03 nM; EC50 [4]: 0.77 nM; CD40/NF-κB reporter (HEK-Blue CD40L), 4-1BB-crosslinked, EC50 [8]: 0.69 nM; EC50 [10]: 2.17 nM; 4-1BB/NF-κB luciferase reporter, CD40-crosslinked, EC50 [11]: 0.41 nM
